Laboratory results reported in patent publication KR20170108690A (dated 2017).

Target: T1, BSA (UniProt P02769 25-607)
T1 construct: also called 음성 대조군; 대조군
Experiment: ELISA of clone supernatant on coated antigen

T1 sequence (P02769 25-607 limits assumed): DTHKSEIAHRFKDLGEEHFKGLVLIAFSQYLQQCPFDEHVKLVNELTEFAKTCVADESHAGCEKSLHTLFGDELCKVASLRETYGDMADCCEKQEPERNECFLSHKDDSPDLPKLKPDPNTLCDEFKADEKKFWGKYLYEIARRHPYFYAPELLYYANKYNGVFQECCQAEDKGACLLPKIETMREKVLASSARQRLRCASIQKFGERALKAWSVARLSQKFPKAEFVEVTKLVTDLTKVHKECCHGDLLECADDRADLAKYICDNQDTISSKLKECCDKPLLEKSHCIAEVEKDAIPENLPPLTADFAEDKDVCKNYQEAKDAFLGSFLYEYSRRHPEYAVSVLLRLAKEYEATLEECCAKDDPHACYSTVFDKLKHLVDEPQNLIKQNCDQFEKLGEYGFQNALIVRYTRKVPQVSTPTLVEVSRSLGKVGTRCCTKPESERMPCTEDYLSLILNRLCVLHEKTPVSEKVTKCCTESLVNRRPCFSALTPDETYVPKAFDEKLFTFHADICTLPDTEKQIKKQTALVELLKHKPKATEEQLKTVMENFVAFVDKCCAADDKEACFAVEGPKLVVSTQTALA

B1: NA-A4 항체 클론 (Fab 형태, 파지 디스플레이 클론의 IPTG 유도 상층액) (Fab, V domains shown)
VH: EVQLVESGGGLVQPGGSLRLSCAASGFTFNSYWMSWVRQAPGKGLEWVSWITPTSGTTYYADSVKGRFTISRDNSKNTLYLQMNSLRAEDTAVYYCARVEDWDIGYYGMDYWGQGTLVTVSS
VL: DIQMTQSPSSLSASVGDRVTITCRASQSVSNWLAWYQQKPGKAPKLLIYWASSLESGVPSRFSGSGSGTDFTLTISSLQPEDFATYYCQQYYNHPYTFGQGTKVEIK
notes: also called Influenza NA-A4 antibody; 인플루엔자 NA-A4 항체
- binding result: no binding
